Assay results from IntAct's records for PubMed 21423214.

B1: Tyrosine-protein kinase JAK2 (Mus musculus), Q62120 (parent)
chain: MGMACLTMTEMEATSTSPVHQNGDIPGSANSVKQIEPVLQVYLYHSLGQAEGEYLKFPSGEYVAEEICVAASKACGITPVYHNMFALMSETERIWYPPNHVFHIDESTRHDILYRIRFYFPHWYCSGSSRTYRYGVSRGAEAPLLDDFVMSYLFAQWRHDFVHGWIKVPVTHETQEECLGMAVLDMMRIAKEKDQTPLAVYNSVSYKTFLPKCVRAKIQDYHILTRKRIRYRFRRFIQQFSQCKATARNLKLKYLINLETLQSAFYTEQFEVKESARGPSGEEIFATIIITGNGGIQWSRGKHKESETLTEQDVQLYCDFPDIIDVSIKQANQECSNESRIVTVHKQDGKVLEIELSSLKEALSFVSLIDGYYRLTADAHHYLCKEVAPPAVLENIHSNCHGPISMDFAISKLKKAGNQTGLYVLRCSPKDFNKYFLTFAVERENVIEYKHCLITKNENGEYNLSGTKRNFSNLKDLLNCYQMETVRSDSIIFQFTKCCPPKPKDKSNLLVFRTNGISDVQISPTLQRHNNVNQMVFHKIRNEDLIFNESLGQGTFTKIFKGVRREVGDYGQLHKTEVLLKVLDKAHRNYSESFFEAASMMSQLSHKHLVLNYGVCVCGEENILVQEFVKFGSLDTYLKKNKNSINILWKLGVAKQLAWAMHFLEEKSLIHGNVCAKNILLIREEDRRTGNPPFIKLSDPGISITVLPKDILQERIPWVPPECIENPKNLNLATDKWSFGTTLWEICSGGDKPLSALDSQRKLQFYEDKHQLPAPKWTELANLINNCMDYEPDFRPAFRAVIRDLNSLFTPDYELLTENDMLPNMRIGALGFSGAFEDRDPTQFEERHLKFLQQLGKGNFGSVEMCRYDPLQDNTGEVVAVKKLQHSTEEHLRDFEREIEILKSLQHDNIVKYKGVCYSAGRRNLRLIMEYLPYGSLRDYLQKHKERIDHKKLLQYTSQICKGMEYLGTKRYIHRDLATRNILVENENRVKIGDFGLTKVLPQDKEYYKVKEPGESPIFWYAPESLTESKFSVASDVWSFGVVLYELFTYIEKSKSPPVEFMRMIGNDKQGQMIVFHLIELLKSNGRLPRPEGCPDEIYVIMTECWNNNVSQRPSFRDLSLRVDQIRDSIAA

Variants of: B1
Conditions: with cdn1b_human CDKN1B

Variant	effect of a mutation on the interaction
V617F	increasing interaction strength
